# From doi:10.1101/2022.04.26.489478
# B1: mCherry tagged HsC53^sAIM, Q96JB5 1-506 (natural protein)
# chain: MEDHQHVPIDIQTSKLLDWLVDRRHCSLKWQSLVLTIREKINAAIQDMPESEEIAQLLSGSYIHYFHCLRILDLLKGTEASTKNIFGRYSSQRMKDWQEIIALYEKDNTYLVELSSLLVRNVNYEIPSLKKQIAKCQQLQQEYSRKEEECQAGAAEMREQFYHSCKQYGITGENVRGELLALVKDLPSQLAEIGAAAQQSLGEAIDVYQASVGFVCESPTEQVLPMLRFVQKRGNSTVYEWRTGTEPSVVERPHLEELPEQVAEDAIDAGDFGVEAVSEGTDSGISAEAAGIDAGIFPESDSKDPGGDGIDAGDDAVALQITVLEAGTQAPEGVARGPDALTLLEYTETRNQFLDELMELEIFLAQRAVELSEEADVLSVSQFQLAPAILQGQTKEKMVTMVSVLEDLIGKLTSLQLQHLFMILASPRYVDRVTEFLQQKLKQSQLLALKKELMVQKQQEALEEQAALEPKLDLLLEKTKELQKLIEADISKRYSGRPVNLMGTSL
# Target: GST-GABARAP (human), O95166
# Test: microscopy-based on-bead protein-protein interaction assay
# Settings: remark: other sources report otherwise
# Chain of GST-GABARAP (human), O95166 (O95166 whole entry): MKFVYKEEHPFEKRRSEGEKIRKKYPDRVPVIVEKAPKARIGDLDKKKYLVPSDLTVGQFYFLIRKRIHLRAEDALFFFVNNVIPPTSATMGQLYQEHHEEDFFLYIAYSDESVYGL
binder,measurement,value
B1,percent recruited less than wild type C53,78%
